Data on six variants can be found in article PMC6744581 (2019).

B1: GFP-RhoBTB1 [human] / myc-ROCK1^1–727 [human] (parent complex)
chain 1: MDADMDYERPNVETIKCVVVGDNAVGKTRLICARACNTTLTQYQLLATHVPTVWAIDQYRVCQEVLERSRDVVDEVSVSLRLWDTFGDHHKDRRFAYGRSDVVVLCFSIANPNSLNHVKSMWYPEIKHFCPRTPVILVGCQLDLRYADLEAVNRARRPLARPIKRGDILPPEKGREVAKELGLPYYETSVFDQFGIKDVFDNAIRAALISRRHLQFWKSHLKKVQKPLLQAPFLPPKAPPPVIKIPECPSMGTNEAACLLDNPLCADVLFILQDQEHIFAHRIYLATSSSKFYDLFLMECEESPNGSEGACEKEKQSRDFQGRILSVDPEEEREEGPPRIPQADQWKSSNKSLVEALGLEAEGAVPETQTLTGWSKGFIGMHREMQVNPISKRMGPMTVVRMDASVQPGPFRTLLQFLYTGQLDEKEKDLVGLAQIAEVLEMFDLRMMVENIMNKEAFMNQEITKAFHVRKANRIKECLSKGTFSDVTFKLDDGAISAHKPLLICSCEWMAAMFGGSFVESANSEVYLPNINKISMQAVLDYLYTKQLSPNLDLDPLELIALANRFCLPHLVALAEQHAVQELTKAATSGVGIDGEVLSYLELAQFHNAHQLAAWCLHHICTNYNSVCSKFRKEIKSKSADNQEYFERHRWPPVWYLKEEDHYQRVKREREKEDIALNKHRSRRKWCFWNSSPAVA
chain 2: MSTGDSFETRFEKMDNLLRDPKSEVNSDCLLDGLDALVYDLDFPALRKNKNIDNFLSRYKDTINKIRDLRMKAEDYEVVKVIGRGAFGEVQLVRHKSTRKVYAMKLLSKFEMIKRSDSAFFWEERDIMAFANSPWVVQLFYAFQDDRYLYMVMEYMPGGDLVNLMSNYDVPEKWARFYTAEVVLALDAIHSMGFIHRDVKPDNMLLDKSGHLKLADFGTCMKMNKEGMVRCDTAVGTPDYISPEVLKSQGGDGYYGRECDWWSVGVFLYEMLVGDTPFYADSLVGTYSKIMNHKNSLTFPDDNDISKEAKNLICAFLTDREVRLGRNGVEEIKRHLFFKNDQWAWETLRDTVAPVVPDLSSDIDTSNFDDLEEDKGEEETFPIPKAFVGNQLPFVGFTYYSNRRYLSSANPNDNRTSSNADKSLQESLQKTIYKLEEQLHNEMQLKDEMEQKCRTSNIKLDKIMKELDEEGNQRRNLESTVSQIEKEKMLLQHRINEYQRKAEQENEKRRNVENEVSTLKDQLEDLKKVSQNSQLANEKLSQLQKQLEEANDLLRTESDTAVRLRKSHTEMSKSISQLESLNRELQERNRILENSKSQTDKDYYQLQAILEAERRDRGHDSEMIGDLQARITSLQEEVKHLKHNLEKVEGERKEAQDMLNHSEKEKNNLEIDLNYKLKSLQQRLEQEVNEHKVTKARLTDKHQSIEEAKSVAMCEMEKKLKEEREAR

The variants in one assay derive from B1. Briefly: co-immunoprecipitation (GFP-trap) with band density quantification; COS7 cells, 24 h after transfection; five independent experiments; parent: 0.52; read off a plot.
chain 1 K197A: the response is ~0.48 relative value myc IP/GFP IP.
On the same count and under the same terms, next, chain 1 D198A: ~0.63 relative value myc IP/GFP IP.
As to chain 1 E64A, chain 1 K197A, the response was ~1.4 relative value myc IP/GFP IP.

Variants of B1 are the subject of the next assay. Kind of assay: co-immunoprecipitation (GFP-trap) with band density quantification; COS7 cells, 24 h after transfection; three independent experiments; parent: 1.1; read off a plot.
As to chain 1 R60A, chain 1 C62A, chain 1 E64A, the response was ~1.1 relative value myc IP/GFP IP.
For the variant chain 1 E64A, the response was ~1.5 relative value myc IP/GFP IP.
Regarding chain 1 E64A, chain 1 K197A, chain 1 D198A, the response was ~1.2 relative value myc IP/GFP IP.
With chain 1 E64A, chain 1 K197A, the response was ~2 relative value myc IP/GFP IP.
